The target in assay [1] is C-terminally myc-tagged ClpP2 (ClpP2-2×myc) (L. monocytogenes EGD-e). As to the kind of experiment: affinity purification with mass spectrometry.
Assay [2] deals with L. monocytogenes ClpP1 of the co-expressed ClpP1/2 preparation (L. monocytogenes). As to the kind of experiment: SEC. In general terms: Size exclusion chromatography separates by hydrodynamic size, large species first.
The target of assay [3] is L. monocytogenes ClpP1, separately overexpressed and purified (ClpP1_(7)) (L. monocytogenes). The assay can be described thus: SEC + other: intact protein mass spectrometry.
Assay [4] has as its target L. monocytogenes ClpP2, separately overexpressed and purified (ClpP2_(14)) (L. monocytogenes). As to the kind of experiment: SEC + other: intact protein mass spectrometry.
The target of assay [5] is L. monocytogenes ClpP1, separately overexpressed and purified (ClpP1_(7)) (L. monocytogenes). As to the kind of experiment: SEC.
In assay [6] the target is L. monocytogenes ClpP2 of the co-expressed ClpP1/2 preparation (L. monocytogenes). The assay can be described thus: SEC.

We go through 5 substances from doi:10.1101/2021.05.25.445618.

“ClpP1, endogenous in L. monocytogenes (enzyme)” came in with a fold enrichment at 42 °C over 20 °C in assay [1] of 6 fold. In assay [2], “L. monocytogenes ClpP1 of the co-expressed ClpP1/2 preparation (enzyme)” gave a stoichiometry N of 7. “L. monocytogenes ClpP1, separately overexpressed and purified (ClpP1_(7)) (enzyme)”: the stoichiometry N in assay [3] and in assay [5] was 7 each time. For the same substance, the percent ClpP1 in the tetradecamer peak in assay [4] is 40 to 44%. Consider “L. monocytogenes ClpP2 of the co-expressed ClpP1/2 preparation (enzyme)”, for which, in assay [6], the stoichiometry N was 14. On to “L. monocytogenes ClpP2, separately overexpressed and purified (ClpP2_(14)) (enzyme)”, for which the stoichiometry N in assay [4] worked out at 14.

The stoichiometry N is a count of units in the complex or per binding partner.
